We go through 9 substances from patent US20240132578A1.

Broadly, the IC50 is the point on the concentration scale where inhibition reaches its midpoint. Low readings indicate greater potency in that assay, high ones weaker potency in that assay.

Common to all, as to experiment: cell-based or functional assay
For experiment [1], the target named is HIV-1 92BR020 Env (HIV-1).
Experiment [2] has as its target HIV-1 92TH021 envelope protein (Env) on pseudovirus (HIV-1).
Another experiment concerns the target HIV-1 APV6 Env (HIV-1).
Experiment [3] deals with HIV-1 Env of isolate MGRM-AG-006 (pseudovirus) (HIV-1).
For experiment [4], the target named is HIV-1 Env of isolate MGRM-F1-015 (pseudovirus) (HIV-1).
The target of experiment [5] is HIV-1 Env of isolate MGRM-F1-023 (pseudovirus) (HIV-1).
The target of experiment [6] is HIV-1 MGRM-AG-005 envelope protein (Env) on pseudovirus (HIV-1).
The target of experiment [7] is HIV-1 envelope glycoprotein (Env) of isolate 92TH021, subtype AE (HIV-1).
Experiment [8] addresses HIV-1 envelope glycoprotein (Env) of isolate MG RM-A-009, subtype A (HIV-1).
The target in experiment [9] is HIV-1 envelope glycoprotein (Env) of isolate MG RM-A-012, subtype A (HIV-1).
Experiment [10] addresses HIV-1 envelope glycoprotein (Env) of isolate MGRM-AE-003, subtype AE (HIV-1).
The target in experiment [11] is HIV-1 envelope glycoprotein (Env) of isolate MGRM-Chronic-B-004, on pseudovirus (HIV-1).
The target in experiment [12] is HIV-1 envelope glycoprotein (Env) of isolate MGRM-Chronic-B-018, on pseudovirus (HIV-1).
The target in experiment [13] is HIV-1 envelope glycoprotein (Env) of isolate NL43, on pseudovirus (HIV-1).
Experiment [14] has as its target HIV-1 envelope glycoprotein (Env) of isolate TRO.11, on pseudovirus (HIV-1).
The target in experiment [15] is HIV-1 JR-CSF Env I414A (HIV-1 (isolate JR-CSF)) (UniProt P20871).
For experiment [16], the target named is HIV-1 JR-CSF Env I415A (HIV-1 (isolate JR-CSF)) (UniProt P20871).
In experiment [17] the target is HIV-1 JR-CSF Env I423A (I4234 in the source) (HIV-1 (isolate JR-CSF)) (UniProt P20871).
Experiment [18] deals with HIV-1 JR-CSF Env K421A (HIV-1 (isolate JR-CSF)) (UniProt P20871).
In experiment [19] the target is HIV-1 92RW020 envelope (Env) on pseudovirus (HIV-1).
Experiment [20] deals with HIV-1 92RW021 envelope glycoprotein (Env) on pseudovirus (HIV-1 (clade A)).
The target in experiment [21] is HIV-1 94UG103 envelope (Env) on pseudovirus (HIV-1).
Experiment [22] addresses HIV-1 Env of isolate 92UG031 (clade A pseudovirus) (HIV-1).
Experiment [23] deals with HIV-1 Env of isolate 92UG046 (clade D pseudovirus) (HIV-1).
The target of experiment [24] is HIV-1 Env of isolate 94UG103 (Clade A) (HIV-1).
In experiment [25] the target is HIV-1 Env of isolate CAAN.A2 (Acute), clade B (HIV-1).
In experiment [26] the target is HIV-1 Env of isolate MGRM-Chronic-B-008, clade B (HIV-1).
Experiment [27] addresses HIV-1 Env of isolate MGRM-F1-020 (HIV-1).
Experiment [28] concerns the target HIV-1 Env of pseudovirus MGRM-F1-020 (clade F) (HIV-1).
Experiment [29] deals with HIV-1 Env of pseudovirus MGRM-G-015 (HIV-1).
The target in experiment [30] is HIV-1 MGRM-AG-013 Env (pseudovirus) (HIV-1).
Experiment [31] deals with HIV-1 Env of isolate MGRM-G-004 (subtype G) (HIV-1).
In experiment [32] the target is HIV-1 Env of isolate 92RW008 (pseudovirus) (HIV-1).
Experiment [33] deals with HIV-1 Env of isolate 92WR026 (pseudovirus) (HIV-1).
The target in experiment [34] is HIV-1 Env of isolate 98CN006 (pseudovirus) (HIV-1).
For experiment [35], the target named is HIV-1 Env of isolate JRFL (HIV-1).
Experiment [36] concerns the target HIV-1 Env of isolate MGRM-AG-005 (subtype AG) (HIV-1).
Experiment [37] addresses HIV-1 Env of isolate MGRM-D-012 (pseudovirus) (HIV-1).
For experiment [38], the target named is HIV-1 Env of isolate MGRM-D-019 (pseudovirus) (HIV-1).
Experiment [39] deals with HIV-1 Env of pseudovirus isolate MGRM-C-019 (clade C) (HIV-1).

4877_D15 (PGT-122) (antibody): the IC50, pseudovirus neutralization in experiment [1] was 0.0337 µg/mL; with HIV-1 APV6 Env (HIV-1), 0.0851 µg/mL; in [7], over 50 µg/mL; in [8] it was 0.012 µg/mL; in experiment [9], 0.257 µg/mL; in experiment [10], over 50 µg/mL. Besides, the IC50, pseudovirus neutralization in experiment [11] was 0.008 µg/mL; in [12], over 50 µg/mL; in experiment [13] it was over 50 µg/mL; in experiment [14] it was 0.011 µg/mL. The IC50 (ug/mL), pseudovirus neutralization in experiment [2] and in [6] was over 10 µg/mL throughout. In addition, the IC50 (µg/mL), pseudovirus neutralization in experiment [3] was found to be 0.028 µg/mL; in [4] it was 31.4 µg/mL; in experiment [5], 0.154 µg/mL.
For 4858_P08 (PGT-123) (antibody), the IC50, pseudovirus neutralization in experiment [1] was 0.013 µg/mL; with HIV-1 APV6 Env (HIV-1), 0.0327 µg/mL; in experiment [7] it was over 50 µg/mL; in [8] it was 0.004 µg/mL; in experiment [9], 0.192 µg/mL; in experiment [10] it was over 50 µg/mL. The IC50, pseudovirus neutralization in experiment [11] was 0.008 µg/mL; in experiment [12] it was over 50 µg/mL; in experiment [13], over 50 µg/mL; in experiment [14], 0.008 µg/mL. For the same substance, the IC50 (ug/mL), pseudovirus neutralization in experiment [2] is over 10 µg/mL; in experiment [6], 0.104 µg/mL. For the same substance, the results for the IC50 (µg/mL), pseudovirus neutralization in experiment [3], in [4] and in [5] were 0.014 µg/mL, over 50 µg/mL and 0.053 µg/mL, respectively. The Fold IC50 increase relative to wild-type (pseudovirus neutralization) stood at 0.3 fold in experiment [15], 0.4 fold in experiment [16], 1.5 fold in [17] and 0.9 fold in experiment [18].
For 1496_C09 (PG9) (TCN-109) (antibody), the neutralization IC50 stood at 0.0637 µg/mL in experiment [19] and 0.173 µg/mL in experiment [21]. Besides, the IC50 (µg/ml), pseudovirus neutralization was 0.05 µg/mL in experiment [20]; 3.08 µg/mL in experiment [22]; 5.67 µg/mL in experiment [25]; 6.66 µg/mL in experiment [26]; 1.51 µg/mL in experiment [29]; 0.23 µg/mL in [30]. The same substance had an IC50 (ug/mL), pseudovirus neutralization in experiment [2] of 0.103 µg/mL. Also, the IC50, pseudovirus neutralization with HIV-1 APV6 Env (HIV-1) worked out at 0.214 µg/mL; in experiment [23], 0.64 µg/mL. The same substance yielded an IC90 (neutralization of pseudovirus) in experiment [24] of 3.37 µg/mL. The substance further came in with an IC50 (µg/mL), pseudovirus neutralization in experiment [27] of 6.4 µg/mL. In [28], this substance came in with an IC50 of 4.55 µg/mL.
Take 5145_B14 (PGT-127) (antibody): the values for the IC50 (µg/mL), pseudovirus neutralization in [3], in experiment [4] and in experiment [5] were 0.021 µg/mL, over 50 µg/mL and 0.119 µg/mL, respectively. Also, the Fold IC50 increase relative to wild-type (pseudovirus neutralization) in experiment [15] was 2.2 fold; in [16], 2.1 fold; in [17], 0.5 fold; in experiment [18] it was 1.5 fold. For the same substance, the IC50, pseudovirus neutralization in experiment [7] was over 50 µg/mL; in [8], 0.013 µg/mL; in experiment [9], 0.105 µg/mL; in experiment [10] it was over 50 µg/mL; in experiment [11], 0.018 µg/mL; in experiment [12], 1.9 µg/mL. Moreover, the IC50, pseudovirus neutralization was over 50 µg/mL in experiment [13] and 0.079 µg/mL in experiment [14].
5141_B17 (PGT-126) (antibody): the IC50, pseudovirus neutralization is 0.0163 µg/mL in experiment [1]; 0.0249 µg/mL in the experiment with HIV-1 APV6 Env (HIV-1); 0.197 µg/mL in experiment [7]; 0.004 µg/mL in experiment [8]; 0.097 µg/mL in [9]; over 50 µg/mL in experiment [10]. In addition, the IC50, pseudovirus neutralization in [11] is 0.01 µg/mL; in experiment [12], 0.052 µg/mL; in experiment [13], over 50 µg/mL; in experiment [14], 0.041 µg/mL. Moreover, the IC50 (ug/mL), pseudovirus neutralization in [2] came to 0.115 µg/mL; in [6], 1.35 µg/mL. Further, the IC50 (µg/mL), pseudovirus neutralization was 0.01 µg/mL in [3], over 50 µg/mL in [4] and 0.009 µg/mL in [5]. Also, the Fold IC50 increase relative to wild-type (pseudovirus neutralization) was found to be 0.4 fold in [15], 0.3 fold in experiment [16], 1.1 fold in [17] and 0.7 fold in experiment [18].
Regarding PGV04 (antibody), the IC50 (µg/mL), pseudovirus neutralization was 1.23 µg/mL in [3], 5.99 µg/mL in [27] and over 50 µg/mL in experiment [31].
As to 5345_I01 (PGT-137) (antibody), the IC50 (µg/mL), pseudovirus neutralization was 0.148 µg/mL in experiment [32]; 0.092 µg/mL in [33]; 1.22 µg/mL in experiment [34]; over 50 µg/mL in experiment [35]; over 50 µg/mL in experiment [37]; over 50 µg/mL in [38]. In addition, the IC50 (µg/mL), pseudovirus neutralization in experiment [27] turned out to be 1.93 µg/mL. Besides, the IC50, pseudovirus neutralization in experiment [36] and in [39] was over 50 µg/mL throughout.
As to 5123_A06 (PGT-125) (antibody), the IC50, pseudovirus neutralization in [1] was 0.0214 µg/mL; with HIV-1 APV6 Env (HIV-1), 0.0359 µg/mL; in experiment [7] it was 0.006 µg/mL; in experiment [8], 0.009 µg/mL; in [9], 0.177 µg/mL; in [10], 0.092 µg/mL. Further, the IC50, pseudovirus neutralization in [11] is 0.007 µg/mL; in experiment [12] it was over 50 µg/mL; in experiment [13], over 50 µg/mL; in experiment [14], 0.111 µg/mL. Besides, the IC50 (ug/mL), pseudovirus neutralization in [2] is 0.0066 µg/mL; in [6] it was over 10 µg/mL. Further, the values for the IC50 (µg/mL), pseudovirus neutralization in experiment [3], in experiment [4] and in [5] were 0.008 µg/mL, over 50 µg/mL and 0.12 µg/mL, respectively. The Fold IC50 increase relative to wild-type (pseudovirus neutralization) in [15] came to 0.3 fold; in [16], 0.3 fold; in [17], 5 fold; in [18], 1.2 fold.
Regarding 4838_L06 (PGT-121) (antibody), the IC50 (ug/mL), pseudovirus neutralization in experiment [2] was over 10 µg/mL. In addition, the IC50 (µg/mL), pseudovirus neutralization in [4] was 28.4 µg/mL; in experiment [5] it was 0.097 µg/mL. The IC50, pseudovirus neutralization in experiment [7] is over 50 µg/mL; in experiment [8] it was 0.006 µg/mL; in experiment [9], 0.092 µg/mL; in experiment [10], over 50 µg/mL; in [11], 0.009 µg/mL; in experiment [12] it was over 50 µg/mL. For the same substance, the figures for the IC50, pseudovirus neutralization in experiment [13] and in [14] were over 50 µg/mL and 0.008 µg/mL, respectively.
